According to PMC12451834:

Biological target: RNA-binding protein EWS low-complexity domain (EWS^LCD, residues 1-264) (UniProt Q01844)
Experiment: condensate partitioning assay

For “EWS^RRM-RGG2 (central RNA-binding region of EWS: RNA-recognition motif and RGG2 domain) (domain or fragment)”, the percent (w/w) co-partitioned into condensates with EWS^LCD was 53 % w/w.
